Assay [1] has as its target T1, NCR3 (antigen of the ELISA in the affinity-maturation table) (human, UniProt O14931 19-135, limits assumed).
T1 construct: also called Natural Cytotoxicity Triggering Receptor 3
T1 sequence (looked up): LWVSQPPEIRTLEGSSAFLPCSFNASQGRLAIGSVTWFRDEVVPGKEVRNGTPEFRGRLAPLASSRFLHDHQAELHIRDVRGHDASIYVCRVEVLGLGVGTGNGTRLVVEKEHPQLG
Put plainly: ELISA, Fab on NCR3. (In an ELISA, binding on a coated surface is turned into a signal by an enzyme label.)

Assay [2] deals with T2, NCR3 on cell (on-cell binding in the affinity-maturation table) (human, UniProt O14931 19-201, limits assumed).
T2 construct: On cell
T2 sequence (looked up): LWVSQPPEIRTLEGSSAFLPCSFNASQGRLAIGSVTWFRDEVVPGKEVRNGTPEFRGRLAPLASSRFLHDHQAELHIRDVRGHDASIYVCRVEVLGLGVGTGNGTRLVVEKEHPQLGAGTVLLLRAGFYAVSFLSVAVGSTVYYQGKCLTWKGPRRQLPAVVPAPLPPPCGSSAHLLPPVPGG
The assay is described as follows: on-cell binding, Fab on NCR3.

B1: NCR3.18.1 (Fab, V domains shown)
VH: EVQLVESGGGLVQPGGSLRLSCAASGFNVSSSSIHWVRQAPGKGLEWVASISSSSGSTSYADSVKGRFTISADTSKNTAYLQMNSLRAEDTAVYYCARRASSRFRSYYDSFYYAGMDYWGQGTLVTVSS
VL: DIQMTQSPSSLSASVGDRVTITCRASQSVSSAVAWYQQKPGKAPKLLIYSASSLYSGVPSRFSGSRSGTDFTLTISSLQPEDFATYYCQQSSSSLITFGQGTKVEIKR
notes: substitutions derived by comparing with parental HC3
A word on the EC50: it is the concentration needed to bring the measured effect to its halfway point. B1: the half-maximal effective concentration (EC50) in assay [1] is 0.78 nM; in assay [2] it was 2.14 nM.

B2: NCR3.18.3 (Fab, V domains shown)
VH: EVQLVESGGGLVQPGGSLRLSCAASGFNVSSSSIHWVRQAPGKGLEWVASISSSSGSTSYADSVKGRFTISADTSKNTAYLQMNSLRAEDTAVYYCARRIGSIYRSYYDSFYYAGMDYWGQGTLVTVSS
VL: DIQMTQSPSSLSASVGDRVTITCRASQSVSSAVAWYQQKPGKAPKLLIYSASSLYSGVPSRFSGSRSGTDFTLTISSLQPEDFATYYCQQSSSSLITFGQGTKVEIKR
notes: substitutions derived against parental HC3
Regarding B2, the results for the half-maximal effective concentration (EC50) in assay [1] and in assay [2] were 0.68 nM and 1.61 nM, respectively.

B3: NCR3.18.12 (Fab, V domains shown)
VH: EVQLVESGGGLVQPGGSLRLSCAASGFNVSSSSIHWVRQAPGKGLEWVASISSSSGSTSYADSVKGRFTISADTSKNTAYLQMNSLRAEDTAVYYCARRRASYYKTYYDSFYYAGMDYWGQGTLVTVSS
VL: DIQMTQSPSSLSASVGDRVTITCRASQSVSSAVAWYQQKPGKAPKLLIYSASSLYSGVPSRFSGSRSGTDFTLTISSLQPEDFATYYCQQSSSSLITFGQGTKVEIKR
notes: as for B2
For the molecule B3, the figures for the EC50 in assay [1] and in assay [2] were 0.53 nM and 2.13 nM, respectively.

B4: NCR3.18.13 (Fab, V domains shown)
VH: EVQLVESGGGLVQPGGSLRLSCAASGFNVSSSSIHWVRQAPGKGLEWVASISSSSGSTSYADSVKGRFTISADTSKNTAYLQMNSLRAEDTAVYYCARRRSSYYMTYYDSFYYAGMDYWGQGTLVTVSS
VL: DIQMTQSPSSLSASVGDRVTITCRASQSVSSAVAWYQQKPGKAPKLLIYSASSLYSGVPSRFSGSRSGTDFTLTISSLQPEDFATYYCQQSSSSLITFGQGTKVEIKR
notes: as for B2
Consider B4, for which the 50% effective concentration (EC50) in assay [1] worked out at 0.98 nM; in assay [2] it was 2.55 nM.

B5: NCR3.18.10 (Fab, V domains shown)
VH: EVQLVESGGGLVQPGGSLRLSCAASGFNVSSSSIHWVRQAPGKGLEWVASISSSSGSTSYADSVKGRFTISADTSKNTAYLQMNSLRAEDTAVYYCARRKSSYYMSYYDSFYYAGMDYWGQGTLVTVSS
VL: DIQMTQSPSSLSASVGDRVTITCRASQSVSSAVAWYQQKPGKAPKLLIYSASSLYSGVPSRFSGSRSGTDFTLTISSLQPEDFATYYCQQSSSSLITFGQGTKVEIKR
notes: as for B2
Take B5: the figures for the half-maximal effective concentration (EC50) in assay [1] and in assay [2] were 1.11 nM and 4.09 nM, respectively.

B6: NCR3.18.9 (Fab, V domains shown)
VH: EVQLVESGGGLVQPGGSLRLSCAASGFNVSSSSIHWVRQAPGKGLEWVASISSSSGSTSYADSVKGRFTISADTSKNTAYLQMNSLRAEDTAVYYCARRKSSSYWSYYDSFYYAGMDYWGQGTLVTVSS
VL: DIQMTQSPSSLSASVGDRVTITCRASQSVSSAVAWYQQKPGKAPKLLIYSASSLYSGVPSRFSGSRSGTDFTLTISSLQPEDFATYYCQQSSSSLITFGQGTKVEIKR
notes: as for B2
With B6, the EC50 in assay [1] came to 0.51 nM; in assay [2] it was 2.24 nM.

B7: NCR3.18.7 (Fab, V domains shown)
VH: EVQLVESGGGLVQPGGSLRLSCAASGFNVSSSSIHWVRQAPGKGLEWVASISSSSGSTSYADSVKGRFTISADTSKNTAYLQMNSLRAEDTAVYYCARRISSYYISYYDSFYYAGMDYWGQGTLVTVSS
VL: DIQMTQSPSSLSASVGDRVTITCRASQSVSSAVAWYQQKPGKAPKLLIYSASSLYSGVPSRFSGSRSGTDFTLTISSLQPEDFATYYCQQSSSSLITFGQGTKVEIKR
notes: as for B2
Turning to B7, the EC50 in assay [1] was found to be 1.23 nM; in assay [2], 3.19 nM.

B8: NCR3.18.14 (Fab, V domains shown)
VH: EVQLVESGGGLVQPGGSLRLSCAASGFNVSSSSIHWVRQAPGKGLEWVASISSSSGSTSYADSVKGRFTISADTSKNTAYLQMNSLRAEDTAVYYCARRTGSYYMTYYDSFYYAGMDYWGQGTLVTVSS
VL: DIQMTQSPSSLSASVGDRVTITCRASQSVSSAVAWYQQKPGKAPKLLIYSASSLYSGVPSRFSGSRSGTDFTLTISSLQPEDFATYYCQQSSSSLITFGQGTKVEIKR
notes: as for B2
Regarding B8, the half-maximal effective concentration (EC50) in assay [1] is 0.57 nM; in assay [2], 3.11 nM.

B9: NCR3.18.19 (Fab, V domains shown)
VH: EVQLVESGGGLVQPGGSLRLSCAASGFNVSSSSIHWVRQAPGKGLEWVASISSSSGSTSYADSVKGRFTISADTSKNTAYLQMNSLRAEDTAVYYCARRVSSPYMSYYDSFYYAGLDYWGQGTLVTVSS
VL: DIQMTQSPSSLSASVGDRVTITCRASQSVSSAVAWYQQKPGKAPKLLIYSASSLYSGVPSRFSGSRSGTDFTLTISSLQPEDFATYYCQQSSSSLITFGQGTKVEIKR
notes: as for B2
As to B9, the EC50 in assay [1] was determined as 0.38 nM; in assay [2], 1.41 nM.

B10: NCR3.18.4 (Fab, V domains shown)
VH: EVQLVESGGGLVQPGGSLRLSCAASGFNVSSSSIHWVRQAPGKGLEWVASISSSSGSTSYADSVKGRFTISADTSKNTAYLQMNSLRAEDTAVYYCARRISSHYMSYYDSFYYAGMDYWGQGTLVTVSS
VL: DIQMTQSPSSLSASVGDRVTITCRASQSVSSAVAWYQQKPGKAPKLLIYSASSLYSGVPSRFSGSRSGTDFTLTISSLQPEDFATYYCQQSSSSLITFGQGTKVEIKR
notes: as for B2
In the case of B10, the EC50 in assay [1] is 2.29 nM; in assay [2], 1.44 nM.

B11: NCR3.18.17 (Fab, V domains shown)
VH: EVQLVESGGGLVQPGGSLRLSCAASGFNVSSSSIHWVRQAPGKGLEWVASISSSSGSTSYADSVKGRFTISADTSKNTAYLQMNSLRAEDTAVYYCARRVGSYYMSYYDSFYYAGMDYWGQGTLVTVSS
VL: DIQMTQSPSSLSASVGDRVTITCRASQSVSSAVAWYQQKPGKAPKLLIYSASSLYSGVPSRFSGSRSGTDFTLTISSLQPEDFATYYCQQSSSSLITFGQGTKVEIKR
notes: as for B2
In the case of B11, the EC50 in assay [1] stood at 0.58 nM; in assay [2], 2.11 nM.

B12: NCR3.18.8 (Fab, V domains shown)
VH: EVQLVESGGGLVQPGGSLRLSCAASGFNVSSSSIHWVRQAPGKGLEWVASISSSSGSTSYADSVKGRFTISADTSKNTAYLQMNSLRAEDTAVYYCARRISSYYVSYYDSFYYAGMDYWGQGTLVTVSS
VL: DIQMTQSPSSLSASVGDRVTITCRASQSVSSAVAWYQQKPGKAPKLLIYSASSLYSGVPSRFSGSRSGTDFTLTISSLQPEDFATYYCQQSSSSLITFGQGTKVEIKR
notes: as for B2
With B12, the concentration giving a half-maximal response (EC50) in assay [1] stood at 0.95 nM; in assay [2], 2.74 nM.

B13: NCR3.18.18 (Fab, V domains shown)
VH: EVQLVESGGGLVQPGGSLRLSCAASGFNVSSSSIHWVRQAPGKGLEWVASISSSSGSTSYADSVKGRFTISADTSKNTAYLQMNSLRAEDTAVYYCARRVSSNYMSYYDSFYYAGMDYWGQGTLVTVSS
VL: DIQMTQSPSSLSASVGDRVTITCRASQSVSSAVAWYQQKPGKAPKLLIYSASSLYSGVPSRFSGSRSGTDFTLTISSLQPEDFATYYCQQSSSSLITFGQGTKVEIKR
notes: as for B2
B13: the figures for the EC50 in assay [1] and in assay [2] were 2.2 nM and 3.39 nM, respectively.

B14: NCR3.18.6 (Fab, V domains shown)
VH: EVQLVESGGGLVQPGGSLRLSCAASGFNVSSSSIHWVRQAPGKGLEWVASISSSSGSTSYADSVKGRFTISADTSKNTAYLQMNSLRAEDTAVYYCARRISSSYMSYYDSFYYAGMDYWGQGTLVTVSS
VL: DIQMTQSPSSLSASVGDRVTITCRASQSVSSAVAWYQQKPGKAPKLLIYSASSLYSGVPSRFSGSRSGTDFTLTISSLQPEDFATYYCQQSSSSLITFGQGTKVEIKR
notes: as for B2
Regarding B14, the 50% effective concentration (EC50) is 1.38 nM in assay [1] and 4.67 nM in assay [2].

B15: NCR3.18.15 (Fab, V domains shown)
VH: EVQLVESGGGLVQPGGSLRLSCAASGFNVSSSSIHWVRQAPGKGLEWVASISSSSGSTSYADSVKGRFTISADTSKNTAYLQMNSLRAEDTAVYYCARRTSSHYISYYDSFYYAGMDYWGQGTLVTVSS
VL: DIQMTQSPSSLSASVGDRVTITCRASQSVSSAVAWYQQKPGKAPKLLIYSASSLYSGVPSRFSGSRSGTDFTLTISSLQPEDFATYYCQQSSSSLITFGQGTKVEIKR
notes: as for B2
On to B15, for which the figures for the concentration giving a half-maximal response (EC50) in assay [1] and in assay [2] were 2.98 nM and 6.76 nM, respectively.

B16: NCR3.18.11 (Fab, V domains shown)
VH: EVQLVESGGGLVQPGGSLRLSCAASGFNVSSSSIHWVRQAPGKGLEWVASISSSSGSTSYADSVKGRFTISADTSKNTAYLQMNSLRAEDTAVYYCARRLGSRYRSYYDSFYYAGMDYWGQGTLVTVSS
VL: DIQMTQSPSSLSASVGDRVTITCRASQSVSSAVAWYQQKPGKAPKLLIYSASSLYSGVPSRFSGSRSGTDFTLTISSLQPEDFATYYCQQSSSSLITFGQGTKVEIKR
notes: as for B2
Regarding B16, the 50% effective concentration (EC50) is 0.77 nM in assay [1] and 1.47 nM in assay [2].

The record behind these values is US20240279331A1 (University of California, published 2024).
